In the supplement of paper PMC12042874:
± gives the uncertainty stated by the source.

experiment: amyloid nucleation score (Sup35N fusion, yeast selection) (log enrichment); library NNK3; higher = more nucleation; inactive = no reads after selection
In short: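 The nucleation score equals the log enrichment of output over input reads from DiMSum, centred on the mode score of non-aggregating sequences. It was computed only for sequences with 100 or more input reads. The reads came from Illumina sequencing of plasmid inserts from psi-negative yeast expressing Sup35N fused to peptides of 20 random codons, induced with 100 μM copper sulfate for 24 hours and grown 7 days at 30°C without adenine and uracil.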

Row | Substance | amyloid nucleation score
1 | LVTPSSTALFWSNFLWSELP | inactive
2 | LVVCYGNWMRLVGIFINGNS | inactive
3 | LVVTYWEMRLVPADAK | inactive
4 | LVVVECSSLMRADLCSTQVM | inactive
5 | LVYAKNMLFDNKDWCV | inactive
6 | LVYPQIYVQV | inactive
7 | LWFMDFMQSSNSEYQPIVGL | inactive
8 | LWHGIICFCFLAYSWGKSAV | inactive
9 | LWQGNMM | -1.07 ± 1.9
10 | LWRKMVVPYFYP | inactive
11 | LWRTGRALWAMNWKAYIQFK | inactive
12 | LWSIRYFKIS | inactive
13 | LWSLYFDFVQGFGMYLSQSL | inactive
14 | LWSSDVEFLYGCASSCDFMG | inactive
15 | LWSYITK | inactive
16 | LYCPGYSMKSSVL | inactive
17 | LYFNVSTTIAIRIRSYSYRV | -0.299 ± 0.62
18 | LYFSNRTIKEYIVN | inactive
19 | LYFYNIESLAMIFNMNENLV | 2.31 ± 0.058
20 | LYIGQGSMIFFYSVVGFSAC | 2.36 ± 0.087
21 | LYIIKSR | -0.51 ± 1.7
22 | LYINYLCWMNKYTACLPLHL | inactive
23 | LYLQVALRTWLLSRWDLDDI | inactive

Row | Substance | amyloid nucleation score
24 | LYNYAVSISTLIH | 0.971 ± 0.2
25 | LYRLPRGYIRGGLLMLSS | inactive
26 | LYSCMFIMLFQNYFLPIGVA | inactive
27 | LYSLFVMFLSVKVWFIVFM | inactive
28 | LYVDCGLRIWRNMSAIVGCV | inactive
29 | LYVFLLNECSWRAPGASI | inactive
30 | LYVTILNVLLLHMTHSLFSG | inactive
31 | MACGGIKTIDTWNGDKFNVQ | inactive
32 | MAFRETRWNFLLNKV | inactive
33 | MCDGFVVVNLILFWKVEMI | inactive
34 | MCEGLEFLNTK | inactive
35 | MCLSILE | inactive
36 | MCNMCR | inactive
37 | MCQNLRMYMIYHRQGKWMKS | inactive
38 | MCVYITYLNLWSDNSLRDRT | 2.23 ± 0.061
39 | MCYQNMR | inactive
40 | MDMLMLMGMALLIDSNVQAK | inactive
41 | MDNLCGVVFCGSWSVVYSAR | 3.35 ± 0.06
42 | MDRRNGNRN | inactive
43 | MDVARRMFLISYIFIIFVVR | inactive
44 | MELNLNKSSAYYKSVHFSVT | -0.053 ± 0.3
45 | MERVRGRRMGVIVAFDVDGW | 1.11 ± 0.19
46 | MESRGALYLSFRGRNCSSTQ | 0.371 ± 0.19

Row | Substance | amyloid nucleation score
47 | MEVLLVIYSDCERARSDTNI | inactive
48 | MEWFFVSYPLITGWMGS | inactive
49 | MFLSALDNGLLVNGYVICVC | inactive
50 | MFMMTKRNCNSTCCHYKFRV | 0.656 ± 0.16
51 | MFNILADKGSRARSERASL | inactive
52 | MFQGHMSWII | inactive
53 | MFQPFYFHNFYISCKLA | 1.95 ± 0.092
54 | MFRVSWFLISGLLRSVAWNG | inactive
55 | MFSYSNSHFSLRLMWRGLRF | inactive
56 | MFWEGVTNSEMATKLHDKCI | inactive
57 | MGKKSAHLSYRICVQCGKDG | inactive
58 | MGLGGHIVLSGCSWFMYHIG | inactive
59 | MGTRFVLGPVQNLCDIGSAW | inactive
60 | MHNKVGPYTD | inactive
61 | MHWCN | 0.228 ± 0.82
62 | MIGVSRLCNRRIF | inactive
63 | MIPCLHEFLYLNSWDNKVGL | inactive
64 | MIRRKRNAYMR | inactive
65 | MIRTFKNSYISNGHCMVRRH | inactive
66 | MIRVSHNRNASDQLRFASSL | inactive
67 | MKAYILMVDRLVVELVPHVA | -0.107 ± 0.35
68 | MKCCFSTLIPAKYNLDTLIL | inactive
69 | MKEDSSYHWRLPHVTSTFVG | inactive

Row | Substance | amyloid nucleation score
70 | MKGCWFWKVIENFHIKSHCR | inactive
71 | MKIGETYDLTSINPAAWNVR | inactive
72 | MKLHTPIEMLEGTHIGHVCG | inactive
73 | MKLVDLGVEIRLRRLAVSSV | inactive
74 | MKVEVYPSTVFMRYRVNWVI | inactive
75 | MKYRTALHTF | -0.961 ± 1.9
76 | MLCFKPKPVRARNPGNILSH | inactive
77 | MLDCYWPFPNISIRIWTEWV | inactive
78 | MLDRCD | inactive
79 | MLDYVF | inactive
80 | MLFSIICNFGNKFLTYKEFT | 0.89 ± 0.24
81 | MLIQPWSSSRNYVPPAEYW | inactive
82 | MLIYSIVLGFKFSPPGFTSN | inactive
83 | MLLCDKFVVCTCIGVQVYSY | 2.19 ± 0.087
84 | MLLCMILPK | 2.26 ± 0.078
85 | MLNNNRWVGVFRLCWNVVWS | inactive
86 | MLNWPIDRDSWRPGFDMWLG | -0.426 ± 0.6
87 | MLRSDPS | inactive
88 | MLTFLVYSCGTGWVCPLLRK | inactive
89 | MLYNCRQGCKRSW | 0.248 ± 0.44
90 | MMCFTLS | inactive
91 | MMFARKFAIKSTKRIMVGRT | inactive
92 | MMFDYLLLRGHNAQIQLWWY | inactive

Row | Substance | amyloid nucleation score
93 | MMHILNGRSEVAPFYSTPIS | inactive
94 | MMLDTWVTYPMREKLDAYRV | inactive
95 | MMPDYKPR | inactive
96 | MMRNTDK | inactive
97 | MNKNIRGYDLFKMRMMDWCM | inactive
98 | MNLVSSIVNYCFGRWGWLVG | inactive
99 | MNRLNPRYMMIKYMDIQKWW | inactive
100 | MPCNVKYSTVCFTA | inactive
101 | MQFEINRRVGHRSPNAYLE | inactive
102 | MRELQENVNDDS | inactive
103 | MRLNGFLRRKGRVSNMWHTG | inactive
104 | MRLVACA | inactive
105 | MRLVICTAHWQSFYRFYIIL | inactive
106 | MRMTTYSGIRVGIIERIMIN | inactive
107 | MRPVT | inactive
108 | MRRTSCTVYTGKIRRIMYVV | inactive
109 | MRYVHRCSRWYLLQQLLRIH | inactive
110 | MSCTDRYEIL | inactive
111 | MSEFSQCRFKSHTFFVTSNR | inactive
112 | MSFRIVFLPC | inactive
113 | MSGLENVACDYKRELAMKRS | inactive
114 | MSLIRYKLG | inactive
115 | MSLWCTITGECKGDGWY | inactive

Row | Substance | amyloid nucleation score
116 | MSNRVMLKNYSLELEEIGRK | inactive
117 | MSRGCCINLTLQIRVFWNTM | inactive
118 | MSSFTAYLLNLR | inactive
119 | MSTLVTMYHYGVGGCVWFYL | inactive
120 | MSVTITGALQVVTKVPANMI | 0.593 ± 0.2
121 | MSVTMMAKWTTLILGIGTGM | inactive
122 | MSYEDTPCH | inactive
123 | MSYVSFKFVERSMGNNSGGI | -0.137 ± 0.64
124 | MTLCLLSFRGQRSMPLYLWT | inactive
125 | MTSIQEF | inactive
126 | MTSQSMKVISWCDRHRQMNS | 1.03 ± 0.13
127 | MTTVKTDCFSQSRYYRHWET | inactive
128 | MTVSVITAMGFTIGFFADNQ | 0.494 ± 0.26
129 | MTYGLFVIYMRGGSNLMLHV | inactive
130 | MVDVNLAKRNGMNQSLHGNS | inactive
131 | MVHAVPHMVDGGS | inactive
132 | MVKDCITRVYFVVWFDYSRS | inactive
133 | MVQTKMSQFKSFEFARVMWH | inactive
134 | MVTRMCYIACLVFRVWAMCR | inactive
135 | MVVVPDQLRVTGMRSGGKSG | inactive
136 | MVYPQLYTTKVVNVVPGLGS | inactive
137 | MWACSKYRWMHATDGVGLTY | 0.674 ± 0.17
138 | MWAGCGVSGPALGHAGSARR | inactive

Row | Substance | amyloid nucleation score
139 | MWFAKAGTCNGSWLDMLSGW | inactive
140 | MWGSM | inactive
141 | MWLPPAVQVLLILKAVIVKL | inactive
142 | MWVPTRHKGLYFVNVVFACH | inactive
143 | MYDLDHSFCTLLTEVRALMK | -0.396 ± 1.4
144 | MYIVRRKTICET | inactive
145 | MYNLNVLNE | inactive
146 | MYRCKKGGLCKLSGCTSKAL | inactive
147 | MYRQGGCVIHWSNVG | inactive
148 | MYTISVKAMNGWYLSLKVGC | inactive
149 | MYTKNPSVSILCFDENGERA | inactive
150 | MYTQCLVYSR | inactive
151 | MYVTIGASNKSYRLLFVARW | -0.368 ± 0.75
152 | NAFNL | inactive
153 | NALTNSVKLFVLQTIVVYMR | inactive
154 | NALYTSLYRLNLGFWAQMLP | inactive
155 | NAQDPIGSGYVQ | inactive
156 | NASIRDGNMTFFSQAVTRLA | inactive
157 | NATIFFMQ | 0.605 ± 0.24
158 | NCCPIIPVDYNYNRLPIIVG | inactive
